{
  "source": "paper PMC5495335",
  "target": "T1, CD6 lymphocyte surface receptor (human (endogenous in PBMC)) (UniProt P30203)",
  "T1 sequence": "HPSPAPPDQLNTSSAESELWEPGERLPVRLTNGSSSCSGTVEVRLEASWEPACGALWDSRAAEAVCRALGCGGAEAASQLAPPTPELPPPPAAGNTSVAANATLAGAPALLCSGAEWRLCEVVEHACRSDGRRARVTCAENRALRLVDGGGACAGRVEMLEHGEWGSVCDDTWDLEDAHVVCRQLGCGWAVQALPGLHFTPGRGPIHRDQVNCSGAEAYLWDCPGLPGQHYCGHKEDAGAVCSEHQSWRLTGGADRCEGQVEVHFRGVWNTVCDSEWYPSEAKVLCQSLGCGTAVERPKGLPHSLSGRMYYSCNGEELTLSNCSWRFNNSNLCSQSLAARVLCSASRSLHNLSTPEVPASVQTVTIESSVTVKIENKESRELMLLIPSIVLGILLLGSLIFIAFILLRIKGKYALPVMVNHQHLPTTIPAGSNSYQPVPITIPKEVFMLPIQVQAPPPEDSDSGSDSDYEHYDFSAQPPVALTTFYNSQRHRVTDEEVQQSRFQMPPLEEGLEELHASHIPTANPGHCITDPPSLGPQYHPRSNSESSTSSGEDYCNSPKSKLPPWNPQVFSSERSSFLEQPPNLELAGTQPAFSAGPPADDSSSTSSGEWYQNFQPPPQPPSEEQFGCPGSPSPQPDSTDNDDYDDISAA",
  "data": [
    {"binder": "Recombinant Human ALCAM/CD166 Fc Chimera (Fc fusion) WYTVNSAYGDTIIIPCRLDVPQNLMFGKWKYEKPDGSPVFIAFRSSTKKSVQYDDVPEYKDRLNLSENYTLSISNARISDEKRFVCMLVTEDNVFEAPTIVKVFKQPSKPEIVSKALFLETEQLKKLGDCISEDSYPDGNITWYRNGKVLHPLEGAVVIIFKKEMDPVTQLYTMTSTLEYKTTKADIQMPFTCSVTYYGPSGQKTIHSEQAVFDIYYPTEQVTIQVLPPKNAIKEGDNITLKCLGNGNPPPEEFLFYLPGQPEGIRSSNTYTLTDVRRNATGDYKCSLIDKKSMIASTAITVHYLDLSLNPSGEVTRQIGDALPVSCTISASRNATVVWMKDNIRLRSSPSFSSLHYQDAGNYVCETALQEVEGLKKRESLTLIVEGKPQIKMTKKTDPSGLSKTIICHVEGFPKPAIQWTITGSGSVINQTEESPYINGRYYSKIIISPEENVTLTCTAENQLERTVNSLNVSAISIPEHDEADEISDENREKVNDQAK", "values": [
      {"measurement": "tyrosine phosphorylation of CD6 immunoprecipitated from human PBMC plated on plate-bound ALCAM (immunoblot for p-Tyr)", "result": "> 2.5", "unit": "fold"}
    ]}
  ]
}
